{"source": "ChEMBL document CHEMBL2074194", "proteins": {"B1": {"name": "Solute carrier family 22 member 2 (Rattus norvegicus) (protein)", "chain": "MSTVDDILEHIGEFHLFQKQTFFLLALLSGAFTPIYVGIVFLGFTPDHHCWSPGAAKLSQRCGWSQAEELNYTVPGLGPSDEASFLSQCMRYEVDWNQSTLDCVDPLSSLAADRNQLPLGPCEHGWVYNTPGSSIVTEFNLVCAHSWMLDLFQSVVNVGFFIGAMMIGYLADRFGRKFCLLVTILINAISGALMAISPNYAWMLVFRFLQGLVSKAGWLIGYILITEFVGLGYRRMVGICYQIAFTVGLLILAGVAYVIPNWRWLQFAVTLPNFCFLLYFWCIPESPRWLISQNKIVKAMKIIKHIAKKNGKSVPVSLQNLTPDEDAGKKLNPSFLDLVRTPQIRKHTLILMYNWFTSSVLYQGLIMHMGLAGDNIYLDFFYSALVEFPAAFIIILTIDRVGRRYPWAVSNMVAGAACLASVFIPDDLQWLKITIACLGRMGITMAYEMVCLVNAELYPTYIRNLGVLVCSSMCDIGGIITPFLVYRLTDIWMEFPLVVFAVVGLVAGALVLLLPETKGKALPETIEDAENMQRPRKKKEKRIYLQVKQADRPLS"}}, "key": {"[1]": {"substrate": "CC[N+](CC)(CC)CC", "assay": "cells, lysate or membranes named"}, "[2]": {"substrate": "C[N+](C)(C)CCO", "assay": "cells, lysate or membranes named"}}, "data": [{"protein": "B1", "values": [{"measurement": "Km", "setting": "[1]", "result": 160, "unit": "µM"}, {"measurement": "Km", "setting": "[2]", "result": 2000, "unit": "µM"}]}]}
